According to the supplement of paper PMC9170038:

System: MS2 coat protein
Assay: apparent KD of MS2 coat protein; higher = weaker reporter binding
Details: Eterna round: R107
Method in brief: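 For every design, apparent KD is the median of normalised binding-curve fits from its clusters. The RNA switches were transcribed on-chip from Illumina sequencing clusters and titrated with SNAP-549-labelled MS2 coat protein (twofold steps, 0.7 or 1.5 nM to 3 µM; 0.8–1.5 h to 10–20 min per step). Titrations used 100 mM Tris-HCl pH 7.5, 80 mM KCl, 4 mM MgCl2, without or with constant ligand.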

[1] = input ligand: theophylline 20 uM
[2] = input ligand: tryptophan 2.4 mM
[3] = input ligand: theophylline 2 mM

Row | Sequence | apparent KD of MS2 coat protein (input ligand: arginine 13.2 mM) [nM] | apparent KD of MS2 coat protein [1] [nM] | apparent KD of MS2 coat protein [2] [nM] | apparent KD of MS2 coat protein (input ligand: none) [nM] | apparent KD of MS2 coat protein [3] [nM]
1 | CGUGAUCCCUGUGAUACCAGAAGUACAUGAGGAUCACCCAUGUCAAACACAAAACCAAGCUUCCCUUGGCAGCAUAGUCGUUAAG [Esmaenbiza] | 67.1 | 240 | 224 | – | –
2 | CGUGCUAGGGCGGCCGCCACUGUGGCUACGGUACAUGAGGAUCACCCAUGUUUGUGGUUGAUCUACAGGACCGGGCCCUGGCACG [Radiaerdi] | 131 | 442 | 280 | 107 | 756
3 | CGUGGUGGGACGGAUACCAGCCACCGCGGCAACGCAACAUGAGGAUCACCCAUGUUGGGUGGCCCUUGGCAGCUGUGCUGCGACG [#1 Same State - Theophylline B Attempt #28 (HarryS)] | 50.9 | 191 | 95.2 | 182 | 34.2
4 | CUAUAUAUAAGAAGGAGCGUCGAAAAUGGGUAAACAUGAGGAUCACCCAUGUAAAGGGAACGACAGGUAGGUCGCUUAUAUAUAG [AstromonsSSArgB#5] | 151 | 169 | 206 | 191 | 184
5 | CUCAUCCACGCGGCCGCCACUAUAUUGUGGUGUGAGUGUGACGUAUUACAUGAGGAUCACCCAUGUAGGACCGGGCGUGGAUGAG [#06 Exclusion Tryptophan B] | 30.9 | 51.3 | – | – | 50.2
6 | CUCCCGUGAGCGGCCGCCACUGGAGGCCUCGCGCGACAUGAGGAUCACCCAUGUUGGCCCGGCCUCAGGACCGGGUUCGCGCGAG [Same State - Tryptophan B Attempt #5 (HarryS)] | 7.94 | 12.4 | 7.41 | 9.67 | 9.89
7 | CUCUGAGUGAUCGCUCACUCAGAGGCGGAUACCAGCGAGGUCCAUCGCCCUUGGCAGCCGAACAUGAGGAUCACCCAUGUCGGUA [#1 Same State - Theophylline A Attempt #20 (HarryS)] | 8.77 | 13.7 | 8.98 | 10.3 | 12.9
8 | CUCUGGUGCUGAGUGAGUGUCGUGACUGAUACCAGAUGCCUUUACAUCCCUUGGCAGCAGUACAUGAGGAUCACCCAUGUAUUCC [Rireusrama] | 17.2 | 33.5 | 21.1 | – | –
9 | CUGCUACAUGAGGAUCACCCAUGUGGAGAUACCAGCCUGAACGAUGGCCCUUGGCAGCUCUUAGCUGGUGAUCAUAUAUUUCAGA [Zazaat] | 25.3 | 68.2 | 28.2 | – | –
10 | CUGUACAUCUCGGCCGCCACUGCAACAUGUAGAGAUGUAUAUGUACAUGAGGAUCACCCAUGUGGCAGGACCGGGAGGUGUGCAG [SSTryp B #27] | 167 | 128 | 111 | 147 | 206
11 | CUUACGGGAAACCGACCCAAACAACGGGAAGGAGCGCCAAACAAGGCAGGUAGGUCGCCCACAUGAGGAUCACCCAUGUGUUGGG [Exclusion Arginine A GF 26] | 42.6 | 47.7 | 45.1 | 38 | 42.3
12 | GAACAUAUGGAUACUAUUAUGAGCACAGAAGGAGCGAGCGGAAGCUCAGGUAGGUCGCUGGGUAACAUGAGGAUCACCCAUGUUG [XArg-A sub1] | 18.7 | 24.7 | 20.8 | 19.1 | 25.6
13 | GAACAUGAGGAUCACCCAUGUAAAACAGAUACCAGUGAUAUAAUACACCCUUGGCAGCUGAAGCUGAAUAAUAAUUCCCUCAAGC [Same State Theophylline A GF1] | 17 | 20 | 15 | – | –
14 | GACAGAAACUGAAGGAGCGAGGUAAAACGGGAUGAGCAAACAUGAGGAUCACCCAUGUGGCCUCAGGUAGGUCGCAGAAAGAAAC [Exclusion Arginine B GF24] | 180 | 183 | 135 | 130 | 123
15 | GACGAGUAGACGGCCGCCACUAUGCUGCGCAGCCCUAGAAACGCACAUGAGGAUCACCCAUGUCUUAGGACCGGGUCGAACUUAA [theeternabot_sameState_MS2_Trp_B_48] | 47.7 | 107 | – | – | 96.2
16 | GACGGUACGUCGGCAAAGCCGAUGUGCCAGCGAGGACCGGUACGGCCGCCACUCGUACAUGAGGAUCACCCAUGUCCGGUCCGUC [Omei Trp SS A C v3] | 51.7 | 108 | 129 | 122 | 167
17 | GAGUAGAGGACGGCCGCCACUGAACAUGAGGAUCACCCAUGUCGUGAUCCGUUACCUAGGGUAGAUAGGACCGGGUCAUGUACUC [Exclusion Tryptophan B GF 18] | 37.2 | 68.8 | – | – | 56.7
18 | GAGUAGUAGACGGCCGCCACUAAACAUGAGGAUCACCCAUGUAGUGAUCCGUUACCUAGCGUAGAUAGGACCGGGUCAGAUAGUA [Exclusion Tryptophan B GF 14] | 21.6 | 31.7 | – | – | 25.9
19 | GAGUUGUGCUCAGGCCCGACUCGCUGAGAAGGAGCGCACUAAGGUGCAGGUAGGUCGCUCAGGAAUACAUGAGGAUCACCCAUGU [Erlaatti] | 21.7 | 29.9 | 25.2 | 22.9 | 28.5

Row | Sequence | apparent KD of MS2 coat protein (input ligand: arginine 13.2 mM) [nM] | apparent KD of MS2 coat protein [1] [nM] | apparent KD of MS2 coat protein [2] [nM] | apparent KD of MS2 coat protein (input ligand: none) [nM] | apparent KD of MS2 coat protein [3] [nM]
20 | GAUAACAUGAGGAUCACCCAUGUGGCGUCGCGAGGACCGGUACGGCCGCCACUCGGCAGUUCAACUCGAAUAUAGUGAUCGAAGU [theeternabot_sameState_MS2_Trp_A_16] | 47.6 | 182 | – | – | 223
21 | GAUGAUAUUGCAGAUACCAGACACAUGAGGAUCACCCAUGUCGCUGGGUCGCUGGGUCGUGUCCCUUGGCAGCUGCGAUAUCAUC [Tibet] | 16.3 | 47.8 | 21.4 | 20.3 | 339
22 | GCACCAGGUACGGAUACCAGCUAUAGGCCCAAUGGGCGACAUGAGGAUCACCCAUGUGAUGGCCCUUGGCAGCUGUACCUGGUGC [SSThB NP+V+V2 #9] | 148 | 193 | 218 | – | –
23 | GCACGACAUGAGGAUCACCCAUGUGCAGAUACCAGUAAUGUAUGUUACCCUUGGCAGCUGAGUAGGUCUGGAGGGCUAUAGGUUU [Same State Theophylline A GF13] | 15.4 | 17.2 | 14.1 | 13.9 | 15.6
24 | GCAGUGGGUUAUAAGUAAUAGAAUUCUGAAGGAGCGUGAUGAAACACAGGUAGGUCGCAGGAACAUGAGGAUCACCCAUGUACGG [Same State Arginine A GF20] | 61.4 | 51.6 | 50.3 | 58.7 | 37.6
25 | GCAUCCUAGUCGGCCGCCACUGCGAAUAGGUCCUGAGUGAUCUAACAUGAGGAUCACCCAUGUAGCAGGACCGGGACUAGGAUGC [(Trp1)-(TM)''-(TM)'-(Ms2)-(Trp2)_Design5] | 12.8 | 22.3 | 17.3 | 16.5 | 23
26 | GCAUCCUAGUCGGCCGCCACUGCGGAUCCGGUUCUAGAUCCUUAACAUGAGGAUCACCCAUGUAGCAGGACCGGGACUAGGAUGC [(Trp1)-(TM)''-(TM)'-(Ms2)-(Trp2)_Design2] | 91 | 251 | 295 | 237 | 324
27 | GCCAUCGGCGGAAGCCGAUGGGAUACAGAAGGAGCGUAGGAAACUACAGGUAGGUCGCUGGACAUGAGGAUCACCCAUGUGAUAG [SSAA #11] | 19.6 | 31.9 | 22.7 | 24 | 31.6
28 | GCCAUCGGCGGAAGCCGAUGGUAUACAGAAGGAGCGUAGGAAACUACAGGUAGGUCGCUGGACAUGAGGAUCACCCAUGUAAUAG [#27 Same State - Arginine A] | 22.2 | 26.7 | 21.8 | 15.2 | 17.5
29 | GCCGGUACGUCGGCAAAGCCGAUGUGCCAGCGAGGACCGGUACGGCCGCCACUCGUACAUGAGGAUCACCCAUGUCCGGUCCGGC [Omei Trp SS A C v1] | 26.7 | 62.5 | – | – | 71.8
30 | GCCUAGCAGCGAAGGAGCGAGGUAACUUAAUAAAUAAAUACAAGAGGAUCACCCUUGUUUCCUCAGGUAGGUCGCGCUGCUAGGC [SSAB Alternative Aptamer #2 NP+V+V2] | 18.2 | 25.6 | 23.5 | 22.6 | 20.9
31 | GCGCUAUUUAUUGAUACCAGAUACAGGAAUCACAUGAGGAUCACCCAUGUGGAAUGAAGGAUCCCUUGGCAGCAAUAGUCAAAAU [theeternabot_sameState_MS2_Theo_B_9] | 16.6 | 19.6 | 19.9 | – | –
32 | GCUAGGUCUACGGCCGCCACUAGACAUGGGUAAGACAUGAGGAUCACCCAUGUACUACGAGUGCAUAGGACCGGGUAGACCUAGC [SSTB NP+V+V2 #19 +-Same Structure] | 111 | 277 | – | – | 516
33 | GCUGCCAUACGAAGGAGCGCUGGUGUAAUGAGGCGAACAUGAGGAUCACCCAUGUGGCAUAAGCAGGUAGGUCGCGUAUGGCAGC [EAB #16] | 16.6 | 20.2 | 15.9 | 17.2 | 20.8
34 | GCUGGGUGCGCAAGGACCUGGCGUUGCGAUACCAGCACGGUAACGUGCCCUUGGCAGCGCACAUGAGGAUCACCCAUGUGGUGUG [#1 Exclusion - Theophylline A Attempt #20 (HarryS)] | 96.8 | 333 | 162 | 230 | 301
35 | GCUGUACCAUGAAGGAGCGUCAUGGAUUGCGAAUACACAUGAGGAUCACCCAUGUUUUUAUGACAGGUAGGUCGCAUGGUACAGC [#01 Same State - Arginine B] | 17.8 | 24.5 | 17.1 | 14.5 | 19.2
36 | GCUUCACAUGAGGAUCACCCAUGUCCGGAUACCAGCUCUCCAGACAGCCCUUGGCAGCCGAGCGCCCGAUUAUAUACCCUAGGAG [theeternabot_sameState_MS2_Theo_A_28] | 21.1 | 53.7 | 27.9 | – | –
37 | GGAACAUGAGGAUCACCCAUGUCGAGUGGUCGAGGACCGGUACGGCCGCCACUCGACAUUGCUCAUAGGUAUAGCGUGAGAACGC [Same State - Tryptophan 1] | 100 | 546 | 618 | 326 | 961
38 | GGACUAACCAGAAGGAGCGACACGCAGAAACUGCUAUUUCCUCCGCACGAGGAUCACCCGUGUCAGGUAGGUCGCUGGUUAGUCG [ArgBX 28] | 22.1 | 25.4 | 21.4 | 19.5 | 20.3
